Reference: the nanobody polyreactivity screen of Harvey et al. (2022)

Experiment: yeast display, Sf9 membrane polyspecificity reagent, FACS + sequencing; frameworks hold sequencing errors
How it was run: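 After 36–48 hours of galactose induction, yeast (Saccharomyces cerevisiae BJ5465) displaying a synthetic nanobody library were stained at 4 °C for 1 hour with 10% biotinylated, detergent-solubilized Sf9 membrane reagent. Streptavidin microbeads enriched the stained cells before FACS sorting into low and high (top ~1%) gates on anti-HA and streptavidin fluorescence. Each clone's polyreactivity label reflects its gate of origin.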

Sequence | polyreactivity (PSR sort gate)
QVQLVESGGGLVQAGGSLRLSCAASGRIFPYYAMGWYRQAPGKERELVATISTAGSTNYADSVKGRFTISRDNAKNTVYLQMNSMKPEDTAVYYCATRNTWYHRGYDFWGLGTQVTVSS | low polyreactivity
QVQLVDSGGGLVQAGGSLRLSCAASGSTVTSYAMGWYRQAPGKERELVAAITYGSGTTYADSVKGRFTISRDNAKNTVYLQMNSLKPEDTAVYYCAADFYYPVLGHGFPTYEYDYWGQGTQVTVSS | low polyreactivity
QAQLVESGGGLVQAGGSLRLSCAASGRTLAWYALGWYRQAPGKERELVADISSGGSTYYADSVKGRFTISRDNAKHTVYVQMNSLKPEDTAVYYCAARWRSWRYKDDYWGQGTQVTVSS | high polyreactivity
QVQLVESGGGKVQAGGSLRLSCAASGRIFYLNAMGWYRQAPGKEREFVAAITRNGGNTYYADSVKGRFTISRDNAKNTVYLQMNSLKPEDTAVYYCNAKYWPFSRWYYYWGQGTQVTVSS | high polyreactivity
QVQLVESVGGLFQAGGSIRLSCAASGRTFFVYAMGWYRQAPGKERVLVAVISFTVDSTFYEDSVKGRFTISRDNAKNTVYLQMNSLKPEDTAVYYCAADVRRVFSKYSYYLYFDLDYWGQGTQVTVSS | low polyreactivity
QVHLVESGGGLVQAGGSLRLSSAASGRTLSRYAMGWYRQAPGKERELGASISWSGGRTYYADSVKGRFTISRDNAKNTVYLQMNSLKPEDTAVYYCAAVYVTAPFDYWGQGTQVTVSS | low polyreactivity
QVQLVESGGGLVQAGGSLRLSCAASGIIFYFYAMGWYRQAPGKERELVATITWSGTSTNYADSVKGRFTISRDNAKNTVYLQMNSLKPEDTAVYYCAARWPTGRNGYWGQGTQVTVSS | high polyreactivity
QVQLVESGGGLVQAGGSLRLSCAASGFTFAYYAMGWYRQAPGKERELVAAITSGGSTKYADSVKGRFTISRDNAKNTVYLQMNSVKPEDTAVYYCFLRGRATQWDFGYWGQGTQVTVSS | high polyreactivity
QVQLVESGGGLVQAGGSLRLSCAASGFTFVQYAMGWYRQAPGKERELVATISKSGGITYYADSVKGRFTISRDNAKNTVFLQMNSLKPEVTAVYYCAAAWYYSSRGFHATWGHDYWGQGTQVTVSS | low polyreactivity
QVQLVESWGGLVQAGGSLRLICAASGRIFYPYAMGWYRQAPGKERELVASITSGGGSYYADSVKGRFTISRDNAKNTVYLQMNSLKPEDTAVYYCAAPYITPYGTYVFSSVYWGQGTQVTVSS | low polyreactivity
QVQLVESGGGLVQAGGSLRLSCAASGIIFWWYAMGWYRQAPGKERELVAAISGTGGSTYYADSVKGRFTISRDNAKNTVYLQMNSLKPEDTAVYYCAKRASPFWRGYDSWGQGTQVTVSS | low polyreactivity
QVQLVESGGGLVQAGGSLRLSCAASGRIFGGYAMGWYRPAPGKERELVAAISWRGGTTYYADSVKGRFTISRDNAKNTVYLQMNSLKPEDTAVYYCNADVVRYRHWHRGDYWGQGTQVTVSS | low polyreactivity
QVQLVESGGGLVQAGGSLRLRCAASGFISGYNTMGWYRQAAGKEMEFVAAISVSGGRTYYADSVKGRFTFSRDNAKNTVYLQMNSLKPEDTAVYYCAGRYWSWRSFKVDYWGQGTQVTVSS | high polyreactivity
QVQLVESGGGLVQAGGSLRLSCAASGRTFGGYAMGWSRQAPGKERELVAAISWSGGRTYYADSVKGRFTISRDNAKNTVYLQMNSLKPEDTAVYYCAATSGRAFKYDYWGQGTQVTVSS | high polyreactivity
QVQLVESGGGLVQAGGSLRLSCAASGNTFSAYAMGWYRQAPGKERELVAAISSRGGSTYYADSVKGRFTISRDNAKNTVYLQMNSLKPEDTAVYYCAAGWFGTSYRYRSSFDYWGQGTQVTVSS | high polyreactivity
QVQLVESAGGLVQAGGSLRLSCAASGYTFPYYTMGWYRQAPGKERELVATITRRGDSTYYADSVKGRFTISRDNAKNTVYLQMNSLKPEDTAVYYCNTASYGRHQFRKSSKMDYWGQGTQVTVSS | high polyreactivity
QVQLVESGGGLVQAGGSLRLSCAASGFTLGTNTMGWYRQAPGKEREFVAAISGRGSSTYYADSVKGRFTISRDNAKNTVYLQMNSLKPEDTAVYYCNKVFWPHPKVVTGNYWGQGTQVTVSS | high polyreactivity
QVQLVESGGGLVQAGGSLRLSCASSGRTFRVNAMVRYRHAPGKERELFAAITYTGGSTYYADSVKGRFTISRDNAKNTVYLQMNSLKPEDTAVYYCAARITSPRASSRGFYYWGQGTQVTVSS | high polyreactivity
QVQLVESGGGLVQAGGSLRLSCAASGSIFEYYAMGWYRQAPGKERELVAAITWSGGSTYYADSVKGRFTISRDNAKNTVYLQMNSLKPEDTAVYYCAKGYYVYGIFHRFGYYWGQGTQVTVSS | high polyreactivity
QVQLVESGGCLVQAGGSLSLSCAASGSIFGWYVMGWYRQAPGKERELGAAISSVGSTYYADSVKGRFTISRDNAKNTVYLQMNSLKPEDTAVYYCAKLRYPYLFSDDSEYWGQGTQVTVSS | low polyreactivity
QVQLEESGGGLVQAGGSLRLSCAASGSTLIDNVMVWYRQAPGKERELVASITSSDGTTYADSVKGRITISRDNAKNTVYLQMNSLIPEDTAVYYCAARPWYGTYNYWGQGTQVTVSS | low polyreactivity
QVQLVESGGGLVQAGGSLRLSCAASGITFYGYAMGWYRQAPGKERELVARISSGGTTKYADSVKGRFTISRDNAKNTVYLQMNSLKPEDTAGYYCAVGGSWWYYGFYYWGQGTQVSVSS | high polyreactivity

Sequence | polyreactivity (PSR sort gate)
QVQLVESGGGLVQAGGSLRLSCAASVFILRYYAMGWYRQAPGKERELVAAISYTAGSTYYADSVKGRFTISRDNAKNTVYLQMNSLKPKDTAVYYCAASYTPWRYVPRDYWGQGTQVTVSS | high polyreactivity
QDQLVESGGGLVQAGGRLRLSCAASGSIFNYYTMGWYRQAPGKETELVAAITWSGGRTYYADSVKGRFTISRDNAKNTVYLQMNSLKPEDTAVYYCNAVAYKPGGGEDFESWGQGTQVTVSS | high polyreactivity
QVQLVDSGGGLVQAGGSLRLSCADSGSINGNYVMGWYRQAPRKERELVAAIRWTGGSTYYADTVKGRFTISRDNAKNTVYLQMNSLKPEDTAVYYCNAESTYYPSGEDYWGQGTQVNVSS | high polyreactivity
QVQLVESGGGLVQAGGSLRLSCAASGSTFFANAMGWYRQAPGKERELVAAITSGGSTYYADSVKVRFTISRDNAKNTVYLQMNSLKPEDTAVYYCAAPLCGGARWGRWWLYDSWGQGTQVNVSS | low polyreactivity
QVQLVESGGGLVQAGGSLRLICAATGITLGYYAMGWYRQAPGKERELVAAISYRGGNTYYADSVKGRFTISRDNAKNTVYLQMNSLKPEDTAVYYCNADLGYESGWWSKYDYWGQGTQVTVSS | low polyreactivity
QVQLVESGGGLVQAGGSLRLSCAASGITFGAYAMGWYRQAPGKERELVAVITRGADTYYADSVKGRFTISRDNAKNTVYLQMNSLKPEDTAVYYCAAEIDLPYYYGSDDDDYWGQGTQVTVSS | high polyreactivity
QVQLVESGGGLVQAGGSLRLSCAASGSIFDYNVMGWSRQAPGKERELVAAITYNDGSTYYGDSVKGRFTISRDYAKNTVYLQMNSLKPEDTAVYYCNAEQTPSGLYDYRGVEGEMGYWGQGTQVTVSS | low polyreactivity
QVQLVESGGGLVQAGGSLRLSCAASGRIFGAYAMGWYRPAPGKERELVAAITSRGSTNYADSVKGRFTISRDHAKNTVYLQMNSLNPEDTAVYYCARRAVYSKRRYDYWGQGTQVTVSS | low polyreactivity
QVQLVESGGGVVQAGGSLRLSCAASGFIFEYYPMGWYRPAPGKERELVAAISWSGGSTYYADSVKGRFTISRDNAKNTVYLQMNSLKPEDTAVYYCAAGRYFHHPTSYYYWGQGTQVTVSS | high polyreactivity
QVQLVESGGGLVQAGGSLRLSCAASGFIFWYNAMGWYRQAPGKERELVAVISTSGTITYYADSVKGRFTISRDNAKNTVYLQMNSLKPEDTAVYYCAARYYQRANGFGYWGQGTQVTVSS | low polyreactivity
QVQLVESGGGLVQAGGSLRLSCAASGFTFGYYAMGWYRQAPGKERELVATIDRGGGTSYADSVKGRFTISRDNAKNTVYLQMNSLKPEDTAVYYCAAVRQGYVAYYYWGQGTQVTVSS | high polyreactivity
QVQLVESGGGLVQAGGSLRLSCAASGSTFQYNVMGWYRQAPGKERELVATISYSSGRTYYADSVKGRFTISRDNAKNTVYLQMNSLKPEDTAVYYCAAAVRLYFWTSAYKYGYWGQGTQVTVSS | high polyreactivity
QVQLVESGGGLVQAGGSLLLSCAASGFTFRYYAMGWNRQAPGKERELVAAINSGGSTNYADSVKGLFTISRDNAKNTVYLQMNSLKPEDTAVYYCAKRGRRGIEYLGSAEMDYWGEGTQVTVSS | low polyreactivity
QVQLVESGGGLVEAGGSLRLSCEASGFNFSRYVMGWYRQAPGKERELVAVISYRGGSTYYADSVKGRFTISRDYAKITVYLQMNSLKPEDTAVYYCNADTIPDGEDRYDYWGQGTQVTVSS | low polyreactivity
QVQLVDSGGGLVQAGGSLRLSCAASGFIFDINAMGWYRQAPGKERELVAAISYSGGSTYYADSVKGRFTISRDNAKNTVYLQMNSLKPEDTAVYYCAADCGPDSDEGDYWGQGTQVTVSS | low polyreactivity
QVQLVESGGGLVQAGGSLRLSCAASGIIFVRNAMGWYRKAPGKERELVAAISRSGGSTYYADSVKWRFTISRDNAKNTVYLQMNSLKPEDTAVYYCAAVLRLSSGYDYWGQGTQVTVSS | high polyreactivity
QVQLVESGGGLVQAGGSLRLSCASSGITLRYYAMGWYRQAPGKERELVAAISSGGRTKYADSVKGRFTISRDNAKNTVYLQMNSLKPENTAVSYCGARKPYVTHTIDVLQAHDYWGQGTQVTVSS | high polyreactivity
QVQHVESGGGLVQAGGSLRLTCAASARIFRYYPMGRYRPAPGKERELVAGITTGGGSTYYADSVKGRFTISRENAKNTVYLQMNSLKPEDTAVFYCAARYYTTYYWGQGTQVTVSS | high polyreactivity
QVQLVESGGGLVQAGGSLRLSCAASGRIYGYAMGWYRQAPGKESELVAVITTSGGRTYYADSVKGRFTISRDNAKNTVYLQMNSLKPEDNAVYYCNVGKPSRRSYGTLIPAALYDSWGQGTQVTVSS | high polyreactivity
QVQLVDSGGGLVQAGGSLRLSCAASGHTLAVNAMGWYRPAPGKERELVAAITSSGGSTSYADSEKGRFTISRDNAKNTVYLQMNSLKPEDTAVYYCAAEQRYPLIILYDYWGQGTQVTVSS | low polyreactivity
QVQLVESGGGLVQAGGSLRLSCAASGSTFKWYAMGWYRPAPGKEREFVAAITKTGGRTNYADSVKGRFTISRDNAKNTVYLQMNSLKPEDTAVYYCAAGYYAGIYYYWGQGTQVTVSS | high polyreactivity
